{"source": "patent US20170151339A1", "about": "(priority 2014, published 2017)", "key": {"[1]": {"assay": "Tolerability in rat PK study of cabazitaxel-RGD nanoparticles", "format": "in vivo", "conditions": "rats, 1 mg/kg dose IV", "method": "(§1) For PK studies, a 0.1 mg/mL solution was dosed at 10 mL/kg such that a 1 mg/kg IV bolus dose was introduced by tail vein injection into rats Following compound administration, blood was collected at 0.083 h, 0.25 h, 0.5 h, 1 h, 2 h, 4 h, 8 h, and 24 h post dose into lithium heparin coated vacuum tubes. Tubes were inverted for 5 minutes and then placed on wet ice until centrifuged for 5 minutes at 4° C. at 6000 rpm. Plasma was harvested, frozen at −80° C. and shipped to for bioanalysis on dry ice."}, "[2]": {"assay": "Pharmacokinetics of cabazitaxel-RGD nanoparticles in rats", "format": "in vivo", "conditions": "rat, 1 mg/kg IV bolus, plasma", "method": "Nanoparticles are typically formulated in 10% sucrose and free drug formulations varied, but are typically dosed in 10% SOLUTOL®/10% sucrose, or physiological saline.\nas §1\n50 uL of rat plasma were precipitated with 300 uL of DMF and the resulting supernatant was measured for compound content by LC-MS/MS electrospray ionization in the positive mode."}, "[3]": {"assay": "Solubility in aqueous media containing Tween 80", "format": "physicochemical", "conditions": "aqueous Tween 80", "excerpt": "In certain formulations, conjugate 1′ was used without any changes to its native lipophilicity (free conjugate). […] The tendency of conjugate 1 to retain in the nanoparticle despite a high aqueous solubility in Tween/water could be due to the high lipophilicity of cabazitaxel and its compatibility/miscibility with the polymeric matrix. The presence of leucine, proline, tryptophan and tyrosine in the LHRH peptide may also assist in the interaction of the conjugate with the polymeric matrix.\nIn certain formulations, conjugate 1 was used without any changes to its native lipophilicity (free conjugate). […] Without committing to any particular theory, the tendency of conjugate 1 to retain in the nanoparticle despite a high aqueous solubility in Tween®/water could be due to the high lipophilicity of cabazitaxel and its compatibility/miscibility with the polymeric matrix. The presence of two phenylalanine amino acids in the octreotide peptide may also assist in the interaction of the conjugate with the polymeric matrix.\nIn some formulations, conjugate 2 was used without any changes to its native lipophilicity (free conjugate). […] The tendency of 2 to be retained in the nanoparticle was reduced compared to 1."}, "[4]": {"assay": "Rat pharmacokinetics of nanoparticle formulations of 1 and 2", "format": "in vivo", "conditions": "rats, 1 mg/kg IV bolus, plasma, dose normalized", "method": "Nanoparticles are typically formulated for in vivo delivery in 10% sucrose and free drug formulations varied, but are typically dosed in 10% Solutol®/10% sucrose, or physiological saline. In this example conjugate 1 without nanoparticle formulation was dosed as a solution in 20% propyleneglycol/80% aqueous sucrose (10%).\n(§2) For rat pharmacokinetic studies using nanoparticles as described herein, a 0.1 mg/mL solution was dosed at 10 mL/kg such that a 1 mg/kg IV bolus dose was introduced by tail vein injection into rats. Following compound administration, blood was collected at 0.083 hours, 0.25 hours, 0.5 hours, 1 hour, 2 hours, 4 hours, 8 hours, and 24 hours post dose into lithium heparin coated vacuum tubes. Tubes were inverted for 5 minutes and then placed on wet ice until centrifuged for 5 minutes at 4° C. at 6000 rpm. Plasma was harvested, frozen at −80° C. and shipped to for bioanalysis on dry ice.\n50 uL of rat plasma was precipitated with 300 uL of DMF and the resulting supernatant was measured for compound content by LC-MS/MS electrospray ionization in the positive mode.\nRepresentative dose normalized rat pharmacokinetic curves for conjugate 1 and nanoparticle formulations of conjugate 1 are shown in FIG. 3.\nRepresentative dose normalized rat pharmacokinetic curves for conjugate 2 and nanoparticle formulations of conjugate 2 are shown in FIG. 4."}, "[5]": {"test_system": "NCI-H524 (ATCC) human lung cancer cells", "format": "cell-based", "conditions": "for IC50: treated 2 hours, further incubated 70 hours", "method": "Conjugates were assessed in an in vitro assay evaluating inhibition of cell proliferation. NCI-H524 (ATCC) human lung cancer cells were plated in 96 well, V-bottomed plates (Costar) at a concentration of 5,000 cells/well and 24 hours later were treated with compound for 2 hours and further incubated 70 hours. Compound starting dose was 20 μM and three fold serial dilutions were done for a total of ten points. After 2 hours of treatment, cells were spun down, the drug containing media was removed, and fresh complete medium was added and used to resuspend the cells, which were spun again. After removal of the wash media, the cells were resuspended in complete medium, then transferred into white walled, flat bottomed 96 well plates. […] Proliferation was measured using CellTiter Glo reagent using the standard protocol (Promega) and a Glomax multi+detection system (Promega). Percent proliferation inhibition was calculated using the following formula: % inhibition=(control−treatment)/control*100. Control is defined as vehicle alone. IC50 curves were generated using the nonlinear regression analysis (four parameter) with GraphPad Prism 6."}, "[6]": {"assay": "Rat pharmacokinetics of nanoparticle formulations of 1′", "format": "in vivo", "conditions": "rats, 1 mg/kg IV bolus, plasma, dose normalized, Table 3", "method": "Nanoparticles described herein were typically formulated in 10% sucrose and free drug formulations were generally formulated typically dosed in 10% Solutol®/l 0% sucrose, or physiological saline.\nas §2, with “For” for “For rat”, “studies,” for “studies using nanoparticles as described herein,”, “post-dose” for “post dose”\n50 uL aliquots of rat plasma were precipitated with 300 uL of DMF and the resulting supernatant was measured for compound content by LC-MS/MS electrospray ionization in the positive mode."}}, "note": "Where a SMILES comes first, the peptide text is derived from it. Bridges are numbered along the chain shown (N, C = ends). [ ]: non-standard residue; d: D form. The star is where a group is joined. X1 = COc1cc2cc(c1Cl)N(C)C(=O)[C@H](OC(=O)[C@H](C)N(C)C(=O)CCS*)[C@]1(C)O[C@H]1[C@H](C)[C@@H]1C[C@@](O)(NC(=O)O1)[C@H](OC)/C=C/C=C(\\C)C2; Thr(ol) = C[C@@H](O)[C@H](N)CO", "data": [{"smiles": "CCCCN(CCSSC[C@@H]1NC(=O)[C@@H](Cc2ccccc2)NC(=O)[C@H](CC(=O)O)NC(=O)CNC(=O)[C@H](CCCNC(=N)N)NC1=O)C(=O)O[C@@H](C(=O)OC1C[C@@]2(O)[C@@H](OC(=O)c3ccccc3)[C@@H]3[C@]4(OC(C)=O)CO[C@@H]4C[C@H](OC)[C@@]3(C)C(=O)[C@H](OC)C(=C1C)C2(C)C)[C@@H](NC(=O)OC(C)(C)C)c1ccccc1", "note": "(stereo partly drawn) [BT-568]", "values": [{"measurement": "tolerability observations post dose", "setting": "[1]", "result": "lethargy and labored breathing were observed immediately post dose in all three rats"}, {"measurement": "mortality", "setting": "[1]; three rats", "result": "one of the three animals died"}, {"measurement": "AUC", "setting": "[2]", "result": 5.3, "unit": "µM·h"}]}, {"smiles": "CO[C@H]1C(=O)[C@]2(C)[C@@H](OC)C[C@H]3OC[C@@]3(OC(C)=O)[C@H]2[C@H](OC(=O)c2ccccc2)[C@]2(O)C[C@H](OC(=O)[C@H](OC(=O)OCCSSCCC(=O)N[C@H](Cc3ccccc3)C(=O)N[C@H]3CSSC[C@@H](C(=O)N[C@H](CO)[C@@H](C)O)NC(=O)[C@H]([C@@H](C)O)NC(=O)[C@H](CCCCN)NC(=O)[C@@H](Cc4c[nH]c5ccccc45)NC(=O)[C@H](Cc4ccccc4)NC3=O)[C@@H](NC(=O)OC(C)(C)C)c3ccccc3)C(C)=C1C2(C)C", "note": "[Conjugate 1]", "values": [{"measurement": "solubility", "setting": "[3]", "result": "> 7000", "unit": "µg/mL"}, {"measurement": "solubility in aqueous media containing surfactant", "setting": "[3]", "result": "high solubility"}, {"measurement": "AUC(0-inf)", "setting": "[4]; conjugate 1 and its nanoparticles, Table 11", "result": 18.3, "unit": "µM·h"}, {"measurement": "IC50", "setting": "[5]", "result": 110, "unit": "nM"}, {"measurement": "AUC(0-inf)", "setting": "[6]", "result": 2.19, "unit": "µM·h"}]}, {"smiles": "CCCCN(CCSSCCC(=O)N[C@H](Cc1ccccc1)C(=O)N[C@H]1CSSC[C@@H](C(=O)N[C@H](CO)[C@@H](C)O)NC(=O)[C@H]([C@@H](C)O)NC(=O)[C@H](CCCCN)NC(=O)[C@@H](Cc2c[nH]c3ccccc23)NC(=O)[C@H](Cc2ccccc2)NC1=O)C(=O)O[C@@H](C(=O)O[C@H]1C[C@@]2(O)[C@@H](OC(=O)c3ccccc3)[C@@H]3[C@]4(OC(C)=O)CO[C@@H]4C[C@H](OC)[C@@]3(C)C(=O)[C@H](OC)C(=C1C)C2(C)C)[C@@H](NC(=O)OC(C)(C)C)c1ccccc1", "note": "[Conjugate 3]", "values": [{"measurement": "IC50", "setting": "[5]", "result": "> 20000", "unit": "nM"}]}, {"smiles": "COc1cc2cc(c1Cl)N(C)C(=O)C[C@H](OC(=O)[C@H](C)N(C)C(=O)CCSSCCC(=O)N[C@H](Cc1ccccc1)C(=O)N[C@H]1CSSC[C@@H](C(=O)N[C@H](CO)[C@@H](C)O)NC(=O)[C@H]([C@@H](C)O)NC(=O)[C@H](CCCCN)NC(=O)[C@@H](Cc3c[nH]c4ccccc34)NC(=O)[C@H](Cc3ccccc3)NC1=O)[C@]1(C)O[C@H]1[C@H](C)[C@@H]1C[C@@](O)(NC(=O)O1)[C@H](OC)/C=C/C=C(\\C)C2", "note": "[Conjugate 4]", "values": [{"measurement": "IC50", "setting": "[5]", "result": 229, "unit": "nM"}]}, {"smiles": "CC[C@H](C)[C@@H]([C@@H](CC(=O)N1CCC[C@H]1[C@H](OC)[C@@H](C)C(=O)N[C@H](C)[C@@H](O)c1ccccc1)OC)N(C)C(=O)[C@@H](NC(=O)[C@H](C(C)C)N(C)C(=O)OCc1ccc(NC(=O)[C@H](CCCNC(N)=O)NC(=O)[C@@H](NC(=O)CCCCCN2C(=O)CC(SCCC(=O)N[C@H](Cc3ccccc3)C(=O)N[C@H]3CSSC[C@@H](C(=O)N[C@H](CO)[C@@H](C)O)NC(=O)[C@H]([C@@H](C)O)NC(=O)[C@H](CCCCN)NC(=O)[C@@H](Cc4c[nH]c5ccccc45)NC(=O)[C@H](Cc4ccccc4)NC3=O)C2=O)C(C)C)cc1)C(C)C", "note": "(stereo partly drawn) [Conjugate 5]", "values": [{"measurement": "IC50", "setting": "[5]", "result": 433, "unit": "nM"}]}, {"smiles": "COc1cc2cc(c1Cl)N(C)C(=O)C[C@H](OC(=O)[C@H](C)N(C)C(=O)CCSSCCC(=O)NCCOCCOCCOCCOCCOCCOCCOCCOCCC(=O)N[C@H](Cc1ccccc1)C(=O)N[C@H]1CSSC[C@@H](C(=O)N[C@H](CO)[C@@H](C)O)NC(=O)[C@H]([C@@H](C)O)NC(=O)[C@H](CCCCN)NC(=O)[C@@H](Cc3c[nH]c4ccccc34)NC(=O)[C@H](Cc3ccccc3)NC1=O)[C@]1(C)O[C@H]1[C@H](C)[C@@H]1C[C@@](O)(NC(=O)O1)[C@H](OC)/C=C/C=C(\\C)C2", "note": "[Conjugate 6]", "values": [{"measurement": "IC50", "setting": "[5]", "result": 234, "unit": "nM"}]}, {"smiles": "COc1cc2cc(c1Cl)N(C)C(=O)[C@H](OC(=O)[C@H](C)N(C)C(=O)CCSSC[C@H](N)C(=O)N[C@@H](CCCCN)C(=O)N[C@@H](CCCCN)C(=O)N[C@@H](CCCCN)C(=O)N[C@@H](CCCCN)C(=O)N[C@H](Cc1ccccc1)C(=O)N[C@H]1CSSC[C@@H](C(=O)N[C@H](CO)[C@@H](C)O)NC(=O)[C@H]([C@@H](C)O)NC(=O)[C@H](CCCCN)NC(=O)[C@@H](Cc3c[nH]c4ccccc34)NC(=O)[C@H](Cc3ccccc3)NC1=O)[C@]1(C)O[C@H]1[C@H](C)[C@@H]1C[C@@](O)(NC(=O)O1)[C@H](OC)/C=C/C=C(\\C)C2", "note": "[Conjugate 7] (H-C(X1)KKKK[dF]CF[dW]KTC[Thr(ol)]; disulfide 7-12)", "values": [{"measurement": "IC50", "setting": "[5]", "result": 955, "unit": "nM"}]}, {"smiles": "COc1cccc2c1C(=O)c1c(O)c3c(c(O)c1C2=O)C[C@@](O)(C(=O)COC(=O)CCCC(=O)N[C@H](Cc1ccccc1)C(=O)N[C@H]1CSSC[C@@H](C(=O)N[C@H](CO)[C@@H](C)O)NC(=O)[C@H]([C@@H](C)O)NC(=O)[C@H](CCCCN)NC(=O)[C@@H](Cc2c[nH]c4ccccc24)NC(=O)[C@H](Cc2ccccc2)NC1=O)C[C@@H]3O[C@H]1C[C@H](N)[C@H](O)[C@H](C)O1", "note": "[Example 2]", "values": [{"measurement": "AUC(0-inf)", "setting": "[4]; conjugate 2 and its nanoparticles, Table 12", "result": 14.3, "unit": "µM·h"}]}, {"smiles": "C[C@@H](O)[C@@H]1NC(=O)[C@H](CCCCN)NC(=O)[C@@H](Cc2c[nH]c3ccccc23)NC(=O)[C@H](Cc2ccccc2)NC(=O)[C@@H](NC(=O)[C@H](N)Cc2ccccc2)CSSC[C@@H](C(=O)N[C@H](CO)[C@@H](C)O)NC1=O", "note": "[Octreotide, reference compound]", "values": [{"measurement": "effect on cell proliferation", "setting": "[5]; octreotide alone", "result": "no significant effect"}]}]}
